Source: paper PMC4805542

System: ZF6-KRAB (synthetic construct)
Assay: EMSA
Conditions: 2.5 uM protein, DNA titrated 130-200 nM; apparent Kd, Scatchard; 6.25 mM MgCl2; 25 mM Hepes pH 7.9, 50 mM KCl, 6.25 mM MgCl2, 1% Nonidet P-40, 5% glycerol; 15 min on ice; 5% PAGE in 0.5x TBE at 4 C

For hRHO 65 bp duplex oligonucleotide, the Kd was 108 nM.
